Assay results: patent US7799901B2, “Modulators of the function of FAS receptors and other proteins” (Yeda Research and Development Co. Ltd., priority 1995, dated 2010)
Entries after “also recorded” stand apart in the source; their conditions may differ.

Tests used:
[1] = system: TNF-induced death of HeLa cells; assay: Death of HeLa cells induced by TNF and cycloheximide; assay type: cell-based, human; conditions: TNF 100 ng/ml, cycloheximide 10 μg/ml
Protocol: (§1) In brief, 293-EBNA cells, MCF7 human breast carcinoma cells and HeLa HtTA-1 cells were grown in Dulbecco's modified Eagle's minimal essential medium supplemented with 10% fetal calf serum, nonessential amino acids, 100 U/ml penicillin and 100 μg/ml streptomycin. Cell tissue culture dishes (5×10^5 293-EBNA cells, 3×10^5 s MCF7 cells or 3×10^5 HeLa cells in 6-cm dishes) were transiently transfected, using the calcium phosphate precipitation method, with the cDNAs of the indicated proteins together with the β-galactosidase expression vector. In the experiments presented in FIGS. 14A-D and 15, each dish was transfected with 3.5 μg of the indicated MACH construct and 1.5 μg of pSV-β-gal. In the experiments presented in FIGS. 16A-D and 17-19, each dish was transfected with 2.5 μg of the indicated MACH or MORT1 construct (or, as control, empty vector) and 1.5 μg of pSV-β-gal. The cells were rinsed 6 to 10 h after transfection. The 293-EBNA and MCF7 cells were incubated for a further 18 h without additional treatment. The HeLa cells were incubated for 26 h after transfection and-then for 5 h in the presence of either anti-Fas.APO1 antibody (CH11, 0.5 μg/ml) or TNF (100 ng/ml), together with cycloheximide (10 μg/ml). The extent of cell death at the end of the incubation periods was assessed by determination of β-galactosidase expression, as described by Kumar et al, 1994. […]

[2] = system: Fas/APO1 cytotoxicity (p55-Fas chimera) in 293-EBNA cells; assay type: cell-based, human; conditions: co-transfection
Protocol: as §1, with “The HeLa cells were incubated for 26 h after transfection and-then for 5 h in the presence of either anti-Fas.APO1 antibody (CH11, 0.5 μg/ml) or TNF (100 ng/ml), together with cycloheximide (10 μg/ml).” left out
(§2) In particular, FIGS. 16A-D show morphology of 293-EBNA cells in which cell death was induced by transient expression of a chimera comprised of the extracellular domain of the p55-R (amino acids 1-168) fused to the transmembrane and intracellular domains of Fas/APO1 (amino acids 153-319) (p55-Fas chimera) (FIGS. 16A and 16B), or by expression of the p55-R (FIGS. 16C and 16D), and of cells that were protected from these cytotoxic effects by their simultaneous transfection with MACHα1 (C360S) (FIGS. 16B and 16D). […] FIG. 17 illustrates the quantification of death induced in 293-EBNA cells by their transfection with p55-Fas chimera or with p55-R, together with an empty vector, a MORT1 deletion mutant lacking the MACH-binding region (MORT1 (92-208)), or MACHα molecules containing a nonfunctional CED3/ICE region. […] Data are from at least two independent experiments and are expressed as in FIGS. 14A-F and 15.

[3] = system: p55-R-induced cytotoxicity in 293-EBNA cells; assay: Death of 293-EBNA cells induced by over-expression of p55-R; assay type: cell-based, human; conditions: co-transfection
Protocol: as §1, with “The HeLa cells were incubated for 26 h after transfection and-then for 5 h in the presence of either anti-Fas.APO1 antibody (CH11, 0.5 μg/ml) or TNF (100 ng/ml), together with cycloheximide (10 μg/ml).” left out
as §2

[4] = system: Fas/APO1-induced death of HeLa cells; assay: Death of HeLa cells expressing Fas/APO1 induced by anti-Fas/APO1 antibody and cycloheximide; assay type: cell-based, human; conditions: HeLa cells transiently expressing Fas/APO1, CH11 0.5 μg/ml, cycloheximide 10 μg/ml
Protocol: (§3) In brief, 293-EBNA cells, MCF7 human breast carcinoma cells and HeLa HtTA-1 cells were grown in Dulbecco's modified Eagle's minimal essential medium supplemented with 10% fetal calf serum, nonessential amino acids, 100 U/ml penicillin and 100 μg/ml streptomycin. Cell tissue culture dishes (5×10^5 293-EBNA cells, 3×10^5 s MCF7 cells or 3×10^5 HeLa cells in 6-cm dishes) were transiently transfected, using the calcium phosphate precipitation method, with the cDNAs of the indicated proteins together with the β-galactosidase expression vector. In the experiments presented in FIGS. 14A-D and 15, each dish was transfected with 3.5 μg of the indicated MACH construct and 1.5 μg of pSV-β-gal. In the experiments presented in FIGS. 16A-D and 17-19, each dish was transfected with 2.5 μg of the indicated MACH or MORT1 construct (or, as control, empty vector) and 1.5 μg of pSV-β-gal. The cells were rinsed 6 to 10 h after transfection. The 293-EBNA and MCF7 cells were incubated for a further 18 h without additional treatment. The HeLa cells were incubated for 26 h after transfection and-then for 5 h in the presence of either anti-Fas.APO1 antibody (CH11, 0.5 μg/ml) or TNF (100 ng/ml), together with cycloheximide (10 μg/ml). The extent of cell death at the end of the incubation periods was assessed by determination of β-galactosidase expression, as described by Kumar et al, 1994.
The HeLa cells were made responsive to Fas/APO1 by transient expression of this receptor. […] These protective effects indicate that MACHα is a necessary component of both the Fas/APO1- and the p55-R-induced signaling cascades for cell death.
In particular, FIGS. 16A-D show morphology of 293-EBNA cells in which cell death was induced by transient expression of a chimera comprised of the extracellular domain of the p55-R (amino acids 1-168) fused to the transmembrane and intracellular domains of Fas/APO1 (amino acids 153-319) (p55-Fas chimera) (FIGS. 16A and 16B), or by expression of the p55-R (FIGS. 16C and 16D), and of cells that were protected from these cytotoxic effects by their simultaneous transfection with MACHα1 (C360S) (FIGS. 16B and 16D). Photographs were taken 26 h after transfection. FIG. 17 illustrates the quantification of death induced in 293-EBNA cells by their transfection with p55-Fas chimera or with p55-R, together with an empty vector, a MORT1 deletion mutant lacking the MACH-binding region (MORT1 (92-208)), or MACHα molecules containing a nonfunctional CED3/ICE region. […] Data are from at least two independent experiments and are expressed as in FIGS. 14A-F and 15.

[5] = system: breast carcinoma MCF7 cells; assay: Cell death on overexpression of MACH isoforms in MCF7 cells; assay type: cell-based, human; conditions: β-galactosidase-expressing cells with apoptopic morphology, 20 h after transfection
Protocol: (§4) To explore the involvement of MACH in cell-death induction, the effect of overexpression of various MACH isoforms on cell viability was examined. The test was performed by transfecting MACH expression vectors together with a β-galactosidase expression vector as a transfection marker into human embryonic kidney 293-EBNA cells and breast carcinoma MCF7 cells.
as §3
(§5) In particular, FIGS. 14A-D show the morphology of human embryonic kidney 293-EBNA cells transiently expressing the indicated MACH isoforms. The arrows (FIG. 14B) point to apoptopic cells. Photographs were taken 26 h after transfection. […] Data are from three independent experiments with the 293-EBNA cells and two independent experiments with the MCF7 cells.

[6] = system: human embryonic kidney 293-EBNA cells; assay: Cell death on overexpression of MACH isoforms in 293-EBNA cells; assay type: cell-based; conditions: β-galactosidase-expressing cells with apoptopic morphology, 20 h after transfection
Protocol: as §4, §3, §5

HeLa cells = assay: Cell death on overexpression of MACH isoforms in HeLa cells; assay type: cell-based; conditions: FIG. 19
Protocol: as §3
To examine the involvement of the CED3/ICE homology region within the MACHα isoforms in their apoptopic effects, cells were transfected with the expression vector for the MACHβ1 isoform, which lacks the CED3/ICE homology region, as well as with expression vectors for MACHα3, which lacks an N-terminal part of the region, and with expression vectors for MACHα1 (C360S) and for a C-terminally truncated mutant of MACHα1 (MACHα1 (1-415)), which lacks one of the residues believed to be critical for CED3/ICE protease function (corresponding to Ser347 in ICE). […]

Molecule	protection against death induced by TNF and cycloheximide [1]	protection against Fas/APO1 cytotoxicity (p55-Fas chimera) [2]	protection against p55-R-induced cytotoxicity [3]	protection against death induced by anti-Fas/APO1 antibody and cycloheximide [4]	protection against death induced by anti-Fas/APO1 antibody and cycloheximide ([4]; listed as MORT1DD (92-208))	cell death of transfected MCF7 cells [5]	cell death of transfected 293-EBNA cells [6]	cytotoxicity in transfected HeLa cells (HeLa cells)
MORT1 (92-208) (protein, UniProt Q13158 92-208, looked up, fragment) PGEEDLCAAFNVICDNVGKDWRRLARQLKVSDTKIDSIEDRYPRNLTERVRESLRIWKNTEKENATVAHLVGALRSCQMNLVADLVQEVQQARDLQNRSGAMSPMSWNSDASTSEAS	protection was also observed	protection was also observed	protection was also observed	protection was also observed	prevention	–	–	–
MACHα3: MACH isoform, cDNA SEQ ID NO: 19, amino acid SEQ ID NO: 20; lacks an N-terminal part of the CED3/ICE region (protein) KCKLDDDMNLLDIFIEMEKRVILGEGKLDILKRVCAQINKSLLKIINDYEEFSKGALTTTFEELHFEIKPHDDCTVEQIYEILKIYQLMDHSNMDCFICCILSHGDKGIIYGTDGQEAPIYELTSQFTGLKCPSLAGKPKVFFIQACQGDNYQKGIPVETDSEEQPYLEMDLSSPQTRYIPDEADFLLGMATVNNCVSYRNPAEGTWYIQSLCQSLRERCPRGDDILTILTEVNYEVSNKDDKKNMGKQMPQPTFTLRKKLVFPSD	effective protection	effective protection	effective protection	effective protection; also recorded: prevention	–	No death	No death	somewhat cytotoxic
